Experimental data as given in publication PMC10347550 (2023).

Molecular target: integrin αIIbβ3 (Homo sapiens, UniProt P08514)
Assay: tryptophan fluorescence quenching (Stern-Volmer)

Kd | Binder
112 nM | Ac-MRADH-NH2 (also: Met and His coordinated to Δ-Ru(Ph2phen)2, dichloride salt) [Δ-[Ru(Ph2phen)2(Ac-MRADH-NH2)]Cl2 (Δ-[3]Cl2)]
83 nM | Ac-MRGDH-NH2 (also: Met and His coordinated to Δ-Ru(Ph2phen)2, Cl2 salt) [Δ-[Ru(Ph2phen)2(Ac-MRGDH-NH2)]Cl2 (Δ-[1]Cl2)]
61 nM | Ac-MRGDH-NH2 (also: Met and His coordinated to Λ-Ru(Ph2phen)2, Cl2 salt) [Λ-[Ru(Ph2phen)2(Ac-MRGDH-NH2)]Cl2 (Λ-[1]Cl2)]
